± gives the half width of the 95% confidence interval.
Assay: folding stability dG unfold from trypsin proteolysis; higher = more stable
Outline: (§1)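 Mini-proteins designed to be under 80 residues and free of cysteine were carried in a PA-tagged cDNA display construct and digested with trypsin and with chymotrypsin. Each protease was applied at 11 threefold-diluted concentrations, alongside a no-protease condition, before sequencing. K50 came from Bayesian fitting of the sequencing counts, and unfolding free energy was obtained by comparing it with a sequence-predicted unfolded-state K50 and a shared folded-state K50, for each protease separately or for both together. Designs were retained only if their AlphaFold2 dimer inter-PAE exceeded 15.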

Compared with “SAGGFKIKNIDVERNPDNGWRTITVEFPGNGWKFQIQVPPDGGVKYEWYNNGEPQTYTIPADDLKDLSAGGS [r8_238_TrROS]”, “SAGAKVEIEFEGNKVTAKIEFGEGTVTVEGEVKLLPDGSALFKPKIYKDGKKIGEFTVLLDLPEGAEVLSAG [r5_221_TrMRF]” is higher in “folding stability dG unfold” value: 1 ± 0.06 kcal/mol for the first, 1.37 ± 0.062 kcal/mol for the second.

First: SAGGSAGGSAPPYKYVQIELWIPGPIEEIADELQDNFGIRSIDVKRDPENGWVRADIYFQFPSAGGSAGGSA [r18_275_TrROS]
Second: SAGSSTTETFTHPDGSVVTVTEEELPDGSYRVTSVSYEATPDGTVSALLRKPDGTIITVDSLEELFALESAG [r5_618_JUSTAS]
The “folding stability dG unfold” value of the first is higher: 2.07 ± 0.046 kcal/mol for the first, 0.965 ± 0.025 kcal/mol for the second.

Going from “SAGGSAGGSAGGEKKWIFMVSFRHPDGKERKFTFPWNDLEEIKENLPGIDDVEIEWMPMSAGGSAGGSAGGS [r10_437_TrROS]” to “SAGGSAGGSAGMKVTIEENEETGKFTIKVKTEDGEEKTIEIPKENLEEILAKLPPNVEIISAGGSAGGSAGG [r11_569_TrROS_Hall]”, the “folding stability dG unfold” value rises from -0.025 ± 0.2 kcal/mol to 2.52 ± 0.11 kcal/mol.

“MFKPGTKVTFGDKTVEVPEGDELYIFEGKVFGTSEVEAVLENMSDDAVGYKLVVEDETGKIVKVEEFVFKPS [r1_304_TrMRF]” and “SAGGSAGGSAGGSGMTLSVTVLEEKPERLPNGGTIITRTVRIPETGEVIEEVTYEPGALSAGGSAGGSAGGS [r4_94_JUSTAS]” are within error of each other in “folding stability dG unfold” value: -0.451 ± 0.25 kcal/mol for the first, -0.594 ± 0.17 kcal/mol for the second.

First: SASFRLEFPGVRIEVEVEEVEVFPRPDGRPYRLYRAKIRFLDVPEELQALDFPFSLDDEIEVLFLVSLDSAG [r14_942_TrMRF]
Second: SAGGSAGGSAGTKTITLPNGLTLTIKPDEPVTITLVKVDPETNEIVEEKTITVYVKEDDLSAGGSAGGSAGG [r11_497_TrROS_Hall]
The “folding stability dG unfold” value of the first is higher: 3.84 ± 0.07 kcal/mol for the first, 1.08 ± 0.021 kcal/mol for the second.

Going from “SAGGPTIRLLVLPNKAEEVAEAIKKEFGAEVKILRVEPYPLPGPDGKVLKPVYLVEIEVKVKDPRLPLSAGG [r13_943_TrMRF]” to “SAGGSAGMTPVSEAVVPGPNVTTLTTYRDPSSSALITPVTTTPPDGVPVTTTTLDLGSSTVTLSTTSAGGSA [r15_993_JUSTAS]”, the “folding stability dG unfold” value falls from 1.17 ± 0.051 kcal/mol to 1.06 ± 0.053 kcal/mol.

Compared with “SAGMPITVDSEVDPETGTTTYTITMPRGPGEPVTVTIPVTYSDDSVTIEVTASPGVDAAEIKALIEKQSSAG [r5_478_JUSTAS]”, “SAGGSAGGSAGGELKLLSVEEGPNETYTVSSSDGKLTVYTKPPDGSWKSTSLPLEPELLSAGGSAGGSAGGS [r10_99_JUSTAS]” is lower in “folding stability dG unfold” value: 0.645 ± 0.053 kcal/mol for the first, -0.277 ± 0.057 kcal/mol for the second.

First: SAGGSAGGSAGSVLILVSREDLEALLEAGAEIVEVSDDYVLIRVEVPEVEVLDENGKRLDSAGGSAGGSAGG [r11_828_TrROS_Hall]
Second: GKYYLVNIVVVNEDNKSLVFPKVFPENDPEKVLEEIKKLLEELGFKAKKLITVFEKLPDGNVLVNAVVEVGS [r1_281_TrMRF]
The “folding stability dG unfold” value of the first is lower: 1.9 ± 0.042 kcal/mol for the first, 3.79 ± 0.15 kcal/mol for the second.

Compared with “SAGGSAGMELVPLPSPQLVPLTVETTPLPETGTTLVTETSPLGERTVTRVDPAGNVTTLSSTSTSTSAGGSA [r15_790_JUSTAS]”, “EKKTLTVLIEVPPEKLEEALARALELAKALPPGQKLEIEIVNEDGTVVRVTVTVDENGEIHIDVEVLPRPPS [r1_350_TrROS_Hall]” is higher in “folding stability dG unfold” value: -0.389 ± 0.033 kcal/mol for the first, 1.76 ± 0.073 kcal/mol for the second.

First: SAGGSAGGIEAVREALEDMPPGEEKEITIPVPGDPNYYIKFTIRTKGNKIKIPIEIEPMPPGQMSAGGSAGG [r6_393_TrROS]
Second: SAGGSAGGSAGEEEVEPPPEVVVRVRFFDKDGKEVLEVEMSLDELRALAEAGLVEVELEPSAGGSAGGSAGG [r11_159_TrROS_Hall]
The “folding stability dG unfold” value of the first is lower: 0.632 ± 0.16 kcal/mol for the first, 2.97 ± 0.25 kcal/mol for the second.

Compared with “SAGGSAGGKKKKPPPLVVVKIEITNPNGEKKELTLVFPSLEDAKAAIEALLPPGYTAKVEIKPLSAGGSAGG [r6_289_TrROS_Hall]”, “SAGGSAGGSAGGGKYRLKLRFTFTNAAGGSSELELEVEIEIPPPPLIAPDADGHWYSLTSAGGSAGGSAGGS [r10_330_TrMRF]” is higher in “folding stability dG unfold” value: 3.16 ± 0.35 kcal/mol for the first, 3.86 ± 0.27 kcal/mol for the second.

Compared with “SADKIKIPPGFQIFGPNGQPIRPGTEVEVEDIEPHPGGGEFMFEVKIKSPDDGEEHNWPIMIRFPPAGKSAG [r14_258_TrROS]”, “SAGGDPAPLEVDIEMDPDNGRIRIEIRAGGSKVIYEYEIPLDGYEFKVKIIVVDGKIVIEIEFEMPDSAGGS [r16_631_TrROS]” is higher in “folding stability dG unfold” value: 0.755 ± 0.13 kcal/mol for the first, 4.27 ± 0.55 kcal/mol for the second.

Going from “SAGGSAGGSAGMYTVSPVGSGGGGSMIRIENPETGEVIELDFDSEEEAAAAAEELKEKLASAGGSAGGSAGG [r11_848_JUSTAS]” to “SITASAKHPEEAIELAEKLKKELEKLLGPDTKVPITLYDDKGNPATFPITLKKKKPKVIYDPEKGLYRDESA [r9_596_TrMRF]”, the “folding stability dG unfold” value falls from 0.343 ± 0.043 kcal/mol to 0.042 ± 0.25 kcal/mol.

“SAGGSAGGSTPPLTTETEAVIEIEGGLYSVKVTQLPPDETLMTIPANGMIIRETPDKIEIRPESAGGSAGGS [r12_737_JUSTAS]” and “SAGGSAGGSKIPIHIWVPPGGSPKKAKERIRRYIREQMPPGNKDMPIDDIKIDVHVMPPGQPVSAGGSAGGS [r12_384_TrROS]” are within error of each other in “folding stability dG unfold” value: -0.374 ± 0.28 kcal/mol for the first, -0.427 ± 0.9 kcal/mol for the second.

Compared with “SEEIAKKIADELKKAGYEVVKVEVTYDKETKKVTIKIVVKDKKTNEYYKITIKLNEETGEIVEVKIEKLPSA [r9_814_TrROS_Hall]”, “SAGGSAGGSAGMLLLTFPERGISYEIKLGDKEEEREADPEEVEKLIAELPNYEVKEVELLSAGGSAGGSAGG [r11_57_JUSTAS]” is lower in “folding stability dG unfold” value: 2.96 ± 0.42 kcal/mol for the first, 0.559 ± 0.1 kcal/mol for the second.

“SPAVRPLSAEFYDPRYTVEAPVYESEEGEPVLNIRFLVPEYELEIPFPLEDPEAVFESFAEDGVSLTLTDSA [r9_384_TrMRF]” and “SAGGSAGGSAGTVIYIDPETDMARVLVPDADGVLVDERAVPPDQLPDVLSQGNFTVVPAPSAGGSAGGSAGG [r11_159_TrMRF]” are within error of each other in “folding stability dG unfold” value: 0.0201 ± 0.088 kcal/mol for the first, -0.327 ± 0.36 kcal/mol for the second.

In the case of “SAGGKRKIMIPMDEMEEKFGIPPNQTVEELAKYINPNYKIEVDNVRYEKDENGKERYWVKVEIEPPKDSAGG [r13_723_TrROS]”, the “folding stability dG unfold” value is reported as 0.739 ± 0.25 kcal/mol.

Assay: folding stability dG unfold from chymotrypsin proteolysis; higher = more stable
Outline: as §1

First: SAGGFKIKNIDVERNPDNGWRTITVEFPGNGWKFQIQVPPDGGVKYEWYNNGEPQTYTIPADDLKDLSAGGS [r8_238_TrROS]
Second: SAGAKVEIEFEGNKVTAKIEFGEGTVTVEGEVKLLPDGSALFKPKIYKDGKKIGEFTVLLDLPEGAEVLSAG [r5_221_TrMRF]
The “folding stability dG unfold” value of the first is lower: 1.34 ± 0.082 kcal/mol for the first, 1.95 ± 0.057 kcal/mol for the second.

Going from “SAGGSAGGSAPPYKYVQIELWIPGPIEEIADELQDNFGIRSIDVKRDPENGWVRADIYFQFPSAGGSAGGSA [r18_275_TrROS]” to “SAGSSTTETFTHPDGSVVTVTEEELPDGSYRVTSVSYEATPDGTVSALLRKPDGTIITVDSLEELFALESAG [r5_618_JUSTAS]”, the “folding stability dG unfold” value falls from 2.444 ± 0.024 kcal/mol to 1.51 ± 0.076 kcal/mol.

First: SAGGSAGGSAGGEKKWIFMVSFRHPDGKERKFTFPWNDLEEIKENLPGIDDVEIEWMPMSAGGSAGGSAGGS [r10_437_TrROS]
Second: SAGGSAGGSAGMKVTIEENEETGKFTIKVKTEDGEEKTIEIPKENLEEILAKLPPNVEIISAGGSAGGSAGG [r11_569_TrROS_Hall]
The “folding stability dG unfold” value of the first is lower: 0.961 ± 0.28 kcal/mol for the first, 1.92 ± 0.036 kcal/mol for the second.

“MFKPGTKVTFGDKTVEVPEGDELYIFEGKVFGTSEVEAVLENMSDDAVGYKLVVEDETGKIVKVEEFVFKPS [r1_304_TrMRF]” and “SAGGSAGGSAGGSGMTLSVTVLEEKPERLPNGGTIITRTVRIPETGEVIEEVTYEPGALSAGGSAGGSAGGS [r4_94_JUSTAS]” are within error of each other in “folding stability dG unfold” value: -0.172 ± 0.51 kcal/mol for the first, 0.0529 ± 0.058 kcal/mol for the second.

For “SASFRLEFPGVRIEVEVEEVEVFPRPDGRPYRLYRAKIRFLDVPEELQALDFPFSLDDEIEVLFLVSLDSAG [r14_942_TrMRF]”, the “folding stability dG unfold” value was 4.36 ± 0.12 kcal/mol.

Source: the supplement of paper PMC12764529
